Experimental data as given in patent publication EP1788086A1 (HUMAN GENOME SCIENCES, INC., dated 2007).
Values belong to the binder of their own block, whether it stands above or below them.

How the values were obtained:
[1] = target: T1, DR5 (expression construct in 293 cells, precipitated with Flag M2 antibody gel) (human, UniProt O14763 52-440); assay: co-immunoprecipitation from co-transfected 293 cell lysates with Flag M2 antibody gel; immunoblot with HRP-conjugated antibody to myc
T1 construct: also called Death Domain Containing Receptor 5; HLYBX88; not shown: Flag tag implied by immunoprecipitation with Flag M2 gel

[2] = target: T1, DR5 (expression construct in 293 cells, …); assay: co-immunoprecipitation from co-transfected 293 cell lysates with Flag M2 antibody gel; immunoblot with polyclonal antibody to FADD

binding result [1]: no binding
B1: myc-tagged TRADD (other, UniProt Q15628 1-312, looked up)
chain: MAAGQNGHEEWVGSAYLFVESSLDKVVLSDAYAHPQQKVAVYRALQAALAESGGSPDVLQMLKIHRSDPQLIVQLRFCGRQPCGRFLRAYREGALRAALQRSLAAALAQHSVPLQLELRAGAERLDALLADEERCLSCILAQQPDRLRDEELAELEDALRNLKCGSGARGGDGEVASAPLQPPVPSLSEVKPPPPPPPAQTFLFQGQPVVNRPLSLKDQQTFARSVGLKWRKVGRSLQRGCRALRDPALDSLAYEYEREGLYEQAFQLLRRFVQAEGRRATLQRLVEALEENELTSLAEDLLGLTDPNGGLA
notes: Detected with HRP-conjugated antibody to myc; also called myc-TRADD; not shown: myc tag

binding result [2]: no binding
B2: FADD (other, UniProt Q13158 1-208, looked up)
chain: MDPFLVLLHSVSSSLSSSELTELKFLCLGRVGKRKLERVQSGLDLFSMLLEQNDLEPGHTELLRELLASLRRHDLLRRVDDFEAGAAAGAAPGEEDLCAAFNVICDNVGKDWRRLARQLKVSDTKIDSIEDRYPRNLTERVRESLRIWKNTEKENATVAHLVGALRSCQMNLVADLVQEVQQARDLQNRSGAMSPMSWNSDASTSEAS
notes: Detected with a polyclonal antibody to FADD; also called FADD/MORT1
